According to patent US20200181226A1 (UNUM THERAPEUTICS, published 2020):

Experiments:
[1] = biological target: T1, ACTR variant SEQ ID NO: 9; assay: flow cytometry titration of rituximab on T cells expressing ACTR variant SEQ ID NO: 9; bound rituximab detected with a fluorochrome-labeled anti-human Fc antibody
T1 construct: also called ACTR T cells; ACTR-expressing T cells

[2] = biological target: T1, ACTR variant SEQ ID NO: 9; assay: cell-based or functional assay
[3] = biological target: T1, ACTR variant SEQ ID NO: 9; assay: apparent affinity; flow cytometry, rituximab titrated on ACTR-expressing T cells, anti-human Fc detection

T1 sequence (chain, as listed by the source mutant limits assumed): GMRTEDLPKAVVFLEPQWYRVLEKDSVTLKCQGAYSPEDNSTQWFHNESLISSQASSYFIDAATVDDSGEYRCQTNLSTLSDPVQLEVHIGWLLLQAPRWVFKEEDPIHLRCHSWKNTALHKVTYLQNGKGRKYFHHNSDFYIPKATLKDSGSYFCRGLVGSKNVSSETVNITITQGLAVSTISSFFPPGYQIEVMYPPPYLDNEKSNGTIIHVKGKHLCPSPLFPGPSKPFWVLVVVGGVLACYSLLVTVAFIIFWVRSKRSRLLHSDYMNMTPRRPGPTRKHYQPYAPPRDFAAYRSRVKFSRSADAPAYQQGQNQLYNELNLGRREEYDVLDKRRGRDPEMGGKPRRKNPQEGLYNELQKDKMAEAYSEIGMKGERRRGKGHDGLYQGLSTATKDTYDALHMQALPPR

B1: rituximab (antibody, V domains shown)
VH: QVQLQQPGAELVKPGASVKMSCKASGYTFTSYNMHWVKQTPGRGLEWIGAIYPGNGDTSYNQKFKGKATLTADKSSSTAYMQLSSLTSEDSAVYYCARSTYYGGDWYFNVWGAGTTVTVSA
VL: QIVLSQSPAILSASPGEKVTMTCRASSSVSYIHWFQQKPGSSPKPWIYATSNLASGVPVRFSGSGSGTSYSLTISRVEAEDAATYYCQQWTSNPPTFGGGTKLEIK
EC50 (read off the curve) [1]: ~700 nM | EC50 (µg/mL) of cytotoxicity, Raji Target Cells + Rituximab [2]: 0.07 µg/mL | Kd [3]: 689 nM
